Reference: patent EP4628506A1, “PREPARATION METHOD FOR AND USE OF CD70-SPECIFIC INTEGRATED DIAGNOSIS AND TREATMENT MOLECULAR IMAGING PROBE” (Renji Hospital, Shanghai Jiao Tong University School of …, priority 2022, dated 2024)

How the values were obtained:
[1] = target: T1, extracellular domain of human recombinant CD70 (human, UniProt P32970 39-193); test: SPR (Biacore), CD70 extracellular domain immobilised, fusion protein as mobile phase
T1 construct: extracellular domain; Immobilised on Biacore chips; also called human CD70; CD27 ligand
T1 sequence (looked up): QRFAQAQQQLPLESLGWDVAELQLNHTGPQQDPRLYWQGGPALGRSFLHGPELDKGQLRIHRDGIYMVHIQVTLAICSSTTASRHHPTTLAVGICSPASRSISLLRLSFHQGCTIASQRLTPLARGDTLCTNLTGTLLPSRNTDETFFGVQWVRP

[2] = target: T2, recombinant human serum albumin (human, UniProt P02768 25-609); test: SPR (Biacore), recombinant human serum albumin immobilised, fusion protein as mobile phase
T2 construct: Immobilised on Biacore chips

[3] = target: T3, recombinant murine serum albumin (murine, UniProt P07724 25-608); test: SPR (Biacore), recombinant murine serum albumin immobilised, fusion protein as mobile phase
T3 construct: Immobilised on Biacore chips

[4] = target: T1, extracellular domain of human …; test: SPR (Biacore), CD70 extracellular domain immobilised, nanobody as mobile phase
RCC models (No. 62 PDX) = test system: RCC models (No. 62 PDX); design: species or system mice; settings: mouse, in vivo
Text: Renal cell carcinoma (RCC) patient-derived xenograft (PDX) models, No. 62 PDX, positive in expression of CD70 were identified by immunohistochemical (IHC) staining using an antihuman CD70 monoclonal antibody (E3Q1A, 69209, Cell Signaling Technology) as a primary antibody, as shown in FIG. 3. RCC PDX models were established by subcutaneously inoculating 2mm×2mm×2mm No. 62 PDX tissue chunks into right shoulder of NCG (NOD-Prkdcem26Cd52Il2rgem26Cd22/Nju) mice.
PET/CT images of small animals involved in these tests were all captured using an IRIS small-animal PET/CT scanner (Inviscan Imaging Systems). Each murine model (three in each group) was injected with 3.7-7.4 MBq of [^68Ga]Ga-NOTA-B3 or [^68Ga]Ga-NOTA-B6 via the tail vein. One hour after the injection, the mice were anesthetized with isoflurane mixed in oxygen (at a concentration of 2%). After being deeply anesthetized, the mice were placed supine on the PET/CT scanning bed, and PET and CT images were captured sequentially. […]
The same operations as in step 2) above were performed. […] ROI uptake in the tumor and major tissues and organs (heart, liver, lungs, kidneys, muscles, spleen and bones) was analyzed and plotted against time. […]

T2 sequence (P02768 25-609 limits assumed): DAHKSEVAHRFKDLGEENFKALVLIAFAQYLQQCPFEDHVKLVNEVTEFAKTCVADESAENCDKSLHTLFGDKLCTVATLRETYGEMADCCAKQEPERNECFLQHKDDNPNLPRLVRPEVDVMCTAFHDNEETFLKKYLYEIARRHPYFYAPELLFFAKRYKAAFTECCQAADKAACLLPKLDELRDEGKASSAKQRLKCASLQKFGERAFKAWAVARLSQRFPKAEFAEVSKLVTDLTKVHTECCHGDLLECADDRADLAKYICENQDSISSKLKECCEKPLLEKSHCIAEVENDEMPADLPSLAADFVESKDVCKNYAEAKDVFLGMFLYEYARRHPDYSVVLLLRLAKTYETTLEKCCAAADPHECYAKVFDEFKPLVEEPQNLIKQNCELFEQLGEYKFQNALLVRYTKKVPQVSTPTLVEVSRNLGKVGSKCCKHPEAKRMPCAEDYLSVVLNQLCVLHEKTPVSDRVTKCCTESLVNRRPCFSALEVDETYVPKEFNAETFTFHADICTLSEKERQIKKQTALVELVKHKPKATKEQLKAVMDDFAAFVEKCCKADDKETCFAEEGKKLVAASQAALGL

Row | Molecule | Kd [1] | Kd [2] | Kd [3] | Kd [4] | uptake in the major excretory (kidneys) and metabolic (liver) organs (RCC models (No. 62 PDX))
1 | CD70-specific nanobody fusion protein ABDB3 (other, 5) HHHHHHQVQLQESGGGSVQAGGSLRLSCAASGIIVNDGCMAWFRQVPGKEREGVAGIVIGEYGGGTTYYADSVKGRFTISRDRAKNTLYLQMNSLKPEDTAMYYCAADQWASGGCTSIATFSDEFDYWGQGTQVTVSSGGGGSGGGGSGGGGSLAEAKVLANRELDKYGVSDFYKRLINKAKTVEGVEALKLHILAALPGGGGSLLQS | 0.11 nM | 0.0742 nM | 0.38 nM | – | –
2 | CD70-specific nanobody fusion protein ABDB6 (other, 7) HHHHHHQVQLQESGGGSVQAGGSLRLSCVASDLIVNDGCMAWFRQVPGKEHEGVARIAIPTTPGSTLYADSVKGRFTISRDGAKNTLYLQMNSLKPEDTAVYYCAADQWASRGCTAIATIPAEFDYWGQGTQVTVSSGGGGSGGGGSGGGGSLAEAKVLANRELDKYGVSDFYKRLINKAKTVEGVEALKLHILAALPGGGGSLLQS | 0.135 nM | 0.0885 nM | 0.454 nM | – | –
3 | CD70-specific nanobody B3 (VHH, Monovalent nanobody expressed in E. coli from pET-30a(+); any vector-derived tag is not described) VHH: QVQLQESGGGSVQAGGSLRLSCAASGIIVNDGCMAWFRQVPGKEREGVAGIVIGEYGGGTTYYADSVKGRFTISRDRAKNTLYLQMNSLKPEDTAMYYCAADQWASGGCTSIATFSDEFDYWGQGTQVTVSS | – | – | – | 5.69 nM | –
4 | CD70-specific nanobody B6 (VHH, Monovalent nanobody expressed in E. coli from pET-30a(+); any vector-derived tag is not described) VHH: QVQLQESGGGSVQAGGSLRLSCVASDLIVNDGCMAWFRQVPGKEHEGVARIAIPTTPGSTLYADSVKGRFTISRDGAKNTLYLQMNSLKPEDTAVYYCAADQWASRGCTAIATIPAEFDYWGQGTQVTVSS | – | – | – | 3.73 nM | –
5 | [^68Ga]Ga-NOTA-B6: human CD70-specific 68Ga-labeled monovalent nanobody probe, B6 modified with p-SCN-Bn-NOTA (conjugate) VHH: QVQLQESGGGSVQAGGSLRLSCVASDLIVNDGCMAWFRQVPGKEHEGVARIAIPTTPGSTLYADSVKGRFTISRDGAKNTLYLQMNSLKPEDTAVYYCAADQWASRGCTAIATIPAEFDYWGQGTQVTVSSGGGGSGGGGSLLQSHHHHHH | – | – | – | – | high nonspecific uptake
